According to patent US20250282866A1 (VIGIL NEUROSCIENCE, published 2025):
Where a chain is given by its changes, count along the chain named.

B1: V31 (antibody, V domains shown)
VH: EVQLVQSGAEVKKPGESLKISCKGSGYSFTSYWIAWVRQMPGKGLEWMGIIYPGDSETRYSPSFQGQVTISADKSISTAYLQWSSLKASDTAMYFCARQRTFYYDSSDYFDYWGQGTLVTVSS
VL: DIQMTQSPSSVSASVGDRVTITCRASQGISSWLAWYQQKPGKAPKLLIYAASSLQNGVPSRFSGSGSGTDFTLTISSLQPEDFATYFCQQADSFPRTFGQGTKLEIK
B2: V72 (antibody, V domains shown)
VH: B1 VH with A35G, E57D, Q99G
VL: B1 VL with Q55V, F94Y
B3: V76 (antibody, V domains shown)
VH: B1 VH with T30G, E57D, S63E, F110S
VL: B1 VL with N56K, T69R
B4: V84 (antibody, V domains shown)
VH: B1 VH with S28G, E57D, F110S
VL: B1 VL with A50G
B5: V77 (antibody, V domains shown)
VH: B1 VH with E57D
VL: B1 VL with L54R
B6: V88 (antibody, V domains shown)
VH: B1 VH with T30G, E57D
VL: B1 VL with S53R, N56R, F94S
B7: V62 (antibody, V domains shown)
VH: B1 VH with T30G, E57D, S61A, D108G
VL: B1 VL with N56R, Q89G
B8: V86 (antibody, V domains shown)
VH: B1 VH with T30G, I34L, E57D, Q65E, Q99S
VL: B1 VL with L54R
B9: V64 (antibody, V domains shown)
VH: B1 VH with T30Q, E57D, Q99G
VL: B1 VL with Q55A, F94Y
B10: V75 (antibody, V domains shown)
VH: B1 VH with E57D, Q99G
VL: B1 VL with N56A, F94Y
B11: V65 (antibody, V domains shown)
VH: B1 VH with E57D, Q99S
VL: B1 VL
B12: V73 (antibody, V domains shown)
VH: B1 VH with T30G, E57D, S63G, Q99G
VL: B1 VL with L54R, F94Y
B13: V89 (antibody, V domains shown)
VH: B1 VH with E57D
VL: B1 VL with F94H
B14: V74 (antibody, V domains shown)
VH: B1 VH with T30A, E57D, T58V, Q99G
VL: B1 VL with N56L
B15: V87 (antibody, V domains shown)
VH: B1 VH with T30R, E57D, T58V, S63D, Q99S
VL: B1 VL with N56W
B16: V63 (antibody, V domains shown)
VH: B1 VH with T30R, E57D, Q99S
VL: B1 VL with N56R, S93R
B17: V85 (antibody, V domains shown)
VH: B1 VH with T30R, I50T, E57D, Q99S
VL: B1 VL with L54R

What follows are binders tested against T1, human TREM2 (human, UniProt Q9NZC2 19-174, limits assumed) (assay: 2nd screen, printed under 10 nM).
T1 construct: also called triggering receptor expressed on myeloid cells 2
T1 sequence: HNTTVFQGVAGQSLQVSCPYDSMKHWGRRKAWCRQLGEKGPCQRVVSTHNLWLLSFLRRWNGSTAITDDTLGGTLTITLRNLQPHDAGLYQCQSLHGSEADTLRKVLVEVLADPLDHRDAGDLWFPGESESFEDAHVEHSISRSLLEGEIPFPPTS
B1 was tested, and the “Binding Signal (fold over 6E7 Parental antibody)” value was 0.73 fold.

These binders were tested against T1, human TREM2 (assay: 2nd screen 10 nM).
B2 was tested, and the “Binding Signal (fold over 6E7 Parental antibody)” value was 4.01 fold.
In the case of B3, the “Binding Signal (fold over 6E7 Parental antibody)” value is reported as 4.93 fold.
With B4 the “Binding Signal (fold over 6E7 Parental antibody)” value was 1.62 fold.
For B5, the “Binding Signal (fold over 6E7 Parental antibody)” value was 1.38 fold.
With B6 the “Binding Signal (fold over 6E7 Parental antibody)” value was 5.3 fold.
With B7 the “Binding Signal (fold over 6E7 Parental antibody)” value was 2.89 fold.
With B8 the “Binding Signal (fold over 6E7 Parental antibody)” value was 5.02 fold.
With B9 the “Binding Signal (fold over 6E7 Parental antibody)” value was 5.48 fold.
For B10, the “Binding Signal (fold over 6E7 Parental antibody)” value was 4.52 fold.
B11 was tested, and the “Binding Signal (fold over 6E7 Parental antibody)” value was 2.75 fold.
In the case of B12, the “Binding Signal (fold over 6E7 Parental antibody)” value is reported as 5.44 fold.
With B13 the “Binding Signal (fold over 6E7 Parental antibody)” value was 1.46 fold.
For B14, the “Binding Signal (fold over 6E7 Parental antibody)” value was 4.01 fold.
With B15 the “Binding Signal (fold over 6E7 Parental antibody)” value was 3.93 fold.
In the case of B16, the “Binding Signal (fold over 6E7 Parental antibody)” value is reported as 3.71 fold.
With B17 the “Binding Signal (fold over 6E7 Parental antibody)” value was 5.37 fold.

The binders below were run against T1, human TREM2 (assay: 1st screen (110 nM or 10 nM)).
With B1 the “Binding Signal (fold over 6E7 Parental antibody)” value was 0.61 fold.
B2 was tested, and the “Binding Signal (fold over 6E7 Parental antibody)” value was 3.64 fold.
B3 was tested, and the “Binding Signal (fold over 6E7 Parental antibody)” value was 4.57 fold.
B4 was tested, and the “Binding Signal (fold over 6E7 Parental antibody)” value was 1.44 fold.
B5 was tested, and the “Binding Signal (fold over 6E7 Parental antibody)” value was 1.43 fold.
For B6, the “Binding Signal (fold over 6E7 Parental antibody)” value was 4.92 fold.
With B7 the “Binding Signal (fold over 6E7 Parental antibody)” value was 2.49 fold.
For B8, the “Binding Signal (fold over 6E7 Parental antibody)” value was 4.8 fold.
With B9 the “Binding Signal (fold over 6E7 Parental antibody)” value was 5.41 fold.
For B10, the “Binding Signal (fold over 6E7 Parental antibody)” value was 4.64 fold.
With B11 the “Binding Signal (fold over 6E7 Parental antibody)” value was 2.05 fold.
With B12 the “Binding Signal (fold over 6E7 Parental antibody)” value was 5.12 fold.
With B13 the “Binding Signal (fold over 6E7 Parental antibody)” value was 1.33 fold.
For B14, the “Binding Signal (fold over 6E7 Parental antibody)” value was 3.94 fold.
In the case of B15, the “Binding Signal (fold over 6E7 Parental antibody)” value is reported as 3.84 fold.
In the case of B16, the “Binding Signal (fold over 6E7 Parental antibody)” value is reported as 3.76 fold.
With B17 the “Binding Signal (fold over 6E7 Parental antibody)” value was 5.41 fold.

These binders were tested against T1, human TREM2 (assay: 2nd screen 2 nM).
B2 was tested, and the “Binding Signal (fold over 6E7 Parental antibody)” value was 2.5 fold.
For B3, the “Binding Signal (fold over 6E7 Parental antibody)” value was 4.34 fold.
In the case of B4, the “Binding Signal (fold over 6E7 Parental antibody)” value is reported as 1.45 fold.
In the case of B5, the “Binding Signal (fold over 6E7 Parental antibody)” value is reported as 0.83 fold.
B6 was tested, and the “Binding Signal (fold over 6E7 Parental antibody)” value was 5.57 fold.
B7 was tested, and the “Binding Signal (fold over 6E7 Parental antibody)” value was 1.87 fold.
In the case of B8, the “Binding Signal (fold over 6E7 Parental antibody)” value is reported as 5.17 fold.
In the case of B9, the “Binding Signal (fold over 6E7 Parental antibody)” value is reported as 4.88 fold.
With B10 the “Binding Signal (fold over 6E7 Parental antibody)” value was 3.74 fold.
In the case of B11, the “Binding Signal (fold over 6E7 Parental antibody)” value is reported as 1.29 fold.
With B12 the “Binding Signal (fold over 6E7 Parental antibody)” value was 4.17 fold.
B13 was tested, and the “Binding Signal (fold over 6E7 Parental antibody)” value was 0.94 fold.
B14 was tested, and the “Binding Signal (fold over 6E7 Parental antibody)” value was 2.54 fold.
For B15, the “Binding Signal (fold over 6E7 Parental antibody)” value was 4.86 fold.
With B16 the “Binding Signal (fold over 6E7 Parental antibody)” value was 4.91 fold.
With B17 the “Binding Signal (fold over 6E7 Parental antibody)” value was 5.41 fold.
